Assays:
[1] = Calculation of free payload:ADC following ADC administration
Procedure: Antibody drug conjugates with thiol-malimide conjugation undergo deconjugation following administration. To assess this deconjugation, free payload: ADC was calculated rather than reverse, because for completely stable antibody, ADC:free payload would be infinity.
Antibody drug conjugates with thiol-malimide conjugation undergo deconjugation following administration. To assess this deconjugation, free payload: ADC was calculated for specific antibody drug conjugates including Trastuzumab, Polatuzumab, Enfortumab and Tisotumab.

[2] = Post-injection bleb volume, area, height - caliper measurement; type: in vivo, Yucatan miniature pig (Sus scrofa domestica); settings: Example 8: dupilumab 2 mL; dupilumab + rHuPH20 5 mL; T0
Procedure: (§1) The needle was inserted vertically into the marked injection site and the HVAI held in place by hand. Target needle insertion depth was ˜10 mm. Injections were timed using a stopwatch. Upon completion of the injection the needle was removed and the HVAI device discarded. Test solution back-leakage was then absorbed to a tared eye-spear for 30 seconds on the injection site and the weight of the eye spear was measured using an analytical balance. The margins of the injection site bleb were marked with a permanent marker and measured for length, width, and height using a digital caliper and recorded then photographed with the standard and 3D cameras. Caliper measurements and photographs were taken immediately post-injection. Local injection sites were qualitatively assessed and graded daily for erythema severity, swelling size appearance, and firmness, using a scoring system described in Table 4 Table 5, and Table 6, respectively.
Assessment of Local Swelling Volume and Area Using Caliper Measurement and 3D Imaging. Volume and area of post-injection swelling were measured using both caliper measurement and 3D camera image analysis. For caliper measurements a digital caliper was utilized to measure length, width and height of the bleb that formed post-injection. The length and width are defined as the edge to edge measurements of the bleb (i.e., diameter) along their longest axes. These values were manually recorded, and the volume determined using the formula for half of an ellipsoid Vol=(⅔)*π*A*B*C where A=Length/2, B=Width/2 and C=Height.
Assessment of Post-Injection Bleb Volume, Area and Height (Caliper Measurements). The local injection site swelling (bleb) was marked and measured using a digital caliper.

[3] = Qualitative assessment of local injection sites (erythema, swelling size, induration); type: in vivo, Yucatan miniature pig (Sus scrofa domestica); settings: Example 8: dupilumab 2 mL; dupilumab + rHuPH20 5 mL; T0, three evaluators
Procedure: as §1
Approximately, 24 hours post-dosing of the first injection, each animal was re-anesthetized, and injection sites assessed for erythema, induration and swelling, then photographed and returned to its cage.

[4] = Calculation of drug to antibody ratio (DAR); settings: for ADC:free Ab / free Ab:ADC: after adjustment factor
Description: The Drug-to-Antibody Ratio (DAR) is a critical parameter in antibody drug conjugate development, representing the average number of drug molecules attached to each antibody molecule.

[5] = Concentration (weight/mL) basis, Unconjugated MMAE/ADC over 28 days
[6] = Molar basis, Unconjugated MMAE/ADC over 28 days
[7] = Molar basis, Using molecular weight for the entire linker, MMAE/ADC over 28 days
[8] = Concentration (weight/mL) basis, unconjugated MMAE/antibody conjugated MMAE over 21 days
[9] = Molar basis, Using molecular weight for the entire linker
[10] = Molar basis, different tumor (line after the one using molecular weight for the entire linker)
[11] = Molar basis, unconjugated MMAE/antibody conjugated MMAE over 21 days
[12] = Concentration (weight/mL) basis
[13] = Molar basis, second line, Unconjugated MMAE/ADC over 21 days

Enfortumab vedotin (Padcev)
free payload: ADC, AUC [1, 5]: 0.08% | free payload: ADC, Cmax [1, 5]: 0.02% | free payload: ADC, AUC [1, 6]: 16.4% | free payload: ADC, Cmax [1, 6]: 4.2% | free payload: ADC, AUC [1, 7]: 8.9% | free payload: ADC, Cmax [1, 7]: 2.3%

Polatuzumab vedotin (Polivy)
free payload: ADC, AUC [1, 8]: 1.52% | free payload: ADC, Cmax [1, 8]: 0.46% | free payload: ADC, AUC [1, 9]: 173.1% | free payload: ADC, Cmax [1, 9]: 52.8% | free payload: ADC, AUC ([1]; Molar basis, different tumor): 257.1% | free payload: ADC, Cmax ([1]; Molar basis, different tumor): 87.2% | free payload: ADC, AUC [1, 10]: 140.2% | free payload: ADC, Cmax [1, 10]: 47.5% | free payload: ADC, AUC [1, 11]: 317.5% | free payload: ADC, Cmax [1, 11]: 96.9%

Tisotumab vedotin (Tivdak)
free payload: ADC, AUC [1, 12]: 0.09% | free payload: ADC, Cmax [1, 12]: 0.01% | free payload: ADC, AUC ([1]; Molar basis): 18.5% | free payload: ADC, Cmax ([1]; Molar basis): 3.1% | free payload: ADC, AUC [1, 13]: 10.1% | free payload: ADC, Cmax [1, 13]: 1.7%

dupilumab
Post-injection bleb Area, caliper (Mean ± SEM) [2]: 13.1 ± 1.4 | Post-injection bleb Volume, caliper (Mean ± SEM) [2]: 7.0 ± 1.8 | Induration Score (Mean ± SEM) [3]: 2.4 ± 0.4 | Swelling Score (Mean ± SEM) [3]: 1.4 ± 0.2

mirvetuximab soravtansine
% DAR remaining (which may be ~ADC/ total Ab) ([4]; Day 1): 88.4% | % DAR remaining after adjustment factor to allow for variability (line without head) ([4]; Day 1): 70.7% | ADC:free Ab ([4]; Day 1): 241.3% | free Ab:ADC ([4]; Day 1): 41.4% | % DAR remaining (which may be ~ADC/ total Ab) ([4]; Day 7): 32.6% | % DAR remaining after adjustment factor to allow for variability (line without head) ([4]; Day 7): 26.0% | ADC:free Ab ([4]; Day 7): 35.2% | free Ab:ADC ([4]; Day 7): 283.9%
